B1: HA-Snc2p (COOH-terminally triple-HA-tagged Sncp) (natural protein)
chain: MSSSVPYDPYVPPEESNSGANPNSQNKTAALRQEIDDTVGIMRDNINKVAERGERLTSIEDKADNLAISAQGFKRGANRVRKQMWWKDLKMRMCLFLVVIILLVVIIVPIVVHFS

What was measured:
[1] = target: Sncp (Snc proteins, secretory vesicle SNARE) (yeast (endogenous in the yeast strains of Table 1)) (UniProt P31109); assay: co-IP
[2] = target: T1, Tlg2p (yeast (endogenous in the yeast strains), UniProt Q08144 1-397); assay: co-IP
T1 sequence: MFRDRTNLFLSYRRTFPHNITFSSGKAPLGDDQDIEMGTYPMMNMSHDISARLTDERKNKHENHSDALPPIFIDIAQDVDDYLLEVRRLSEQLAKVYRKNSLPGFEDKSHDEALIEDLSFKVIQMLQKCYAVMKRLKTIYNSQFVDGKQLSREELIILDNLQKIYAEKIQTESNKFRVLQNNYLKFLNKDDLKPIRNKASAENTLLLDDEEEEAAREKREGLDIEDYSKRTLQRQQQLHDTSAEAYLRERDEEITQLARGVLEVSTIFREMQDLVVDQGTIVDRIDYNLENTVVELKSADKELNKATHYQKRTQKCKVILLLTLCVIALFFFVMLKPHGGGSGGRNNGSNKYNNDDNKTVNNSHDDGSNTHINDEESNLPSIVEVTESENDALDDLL

Sequence of Sncp (Snc proteins, secretory vesicle SNARE) (yeast (endogenous in the yeast strains of Table 1)) (P31109 whole entry): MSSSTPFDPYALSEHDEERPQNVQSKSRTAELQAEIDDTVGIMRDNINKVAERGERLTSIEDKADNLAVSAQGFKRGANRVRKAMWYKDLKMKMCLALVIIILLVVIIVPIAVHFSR

| Molecule | percent of total Ssop coprecipitating with Sncp [1] [%] | fold less bound to Tlg2p than to Ssop [2] [fold] |
| --- | --- | --- |
| Ssop (Sso proteins, plasma membrane SNARE) (from UniProt P32867 1-290) (natural protein) | 0.7 |  |
| B1 |  | 10 |

— paper PMC2192655 (The Journal of Cell Biology, 2000)
